# T1: NADPH-CytP450R (Homo sapiens, UniProt P16435)
# T1 construct: gene POR; soluble catalytic domain, C-terminal 614 residues (VRESSFV through SLDVWS), N-terminal His6 tag (pET15b), E. coli BL21(DE3), about 70 kDa
# T1 sequence (P16435 64-677): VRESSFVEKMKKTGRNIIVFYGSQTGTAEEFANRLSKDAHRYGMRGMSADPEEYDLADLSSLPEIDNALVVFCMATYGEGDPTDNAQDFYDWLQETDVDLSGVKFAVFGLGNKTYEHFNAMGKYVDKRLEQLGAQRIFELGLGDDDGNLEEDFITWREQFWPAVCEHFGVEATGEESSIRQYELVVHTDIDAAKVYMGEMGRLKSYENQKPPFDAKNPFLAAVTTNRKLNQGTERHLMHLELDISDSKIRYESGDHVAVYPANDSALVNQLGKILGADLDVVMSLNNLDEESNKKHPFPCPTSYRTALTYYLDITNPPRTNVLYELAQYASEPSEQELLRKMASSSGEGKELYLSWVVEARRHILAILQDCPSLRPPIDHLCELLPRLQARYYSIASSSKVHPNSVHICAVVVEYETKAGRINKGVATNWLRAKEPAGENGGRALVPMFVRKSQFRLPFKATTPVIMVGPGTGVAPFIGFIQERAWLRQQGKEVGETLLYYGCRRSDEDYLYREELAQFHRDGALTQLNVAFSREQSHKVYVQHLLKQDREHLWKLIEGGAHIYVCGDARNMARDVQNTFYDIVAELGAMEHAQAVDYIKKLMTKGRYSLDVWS
# Assays:
# [1] = molecular target: T1, NADPH-CytP450R; test: absorption shift of Cytb5 on reduction ([…] to […] nm); assay type: biochemical; conditions: pH 7.5, 25 °C; 100 mM Hepes, 150 mM NaCl, 0.25 µM CytP450R, 5 µM human Cytb5, 5 µM NADPH
# [2] = substrate: CCCCCCCC/C=C\CCCCCCCC(=O)SCCNC(=O)CCNC(=O)[C@H](O)C(C)(C)COP(=O)(O)OP(=O)(O)OC[C@H]1O[C@@H](n2cnc3c(N)ncnc32)[C@H](O)[C@@H]1OP(=O)(O)O; test: purified protein; assay type: biochemical, Mortierella alpina; conditions: pH 7.5, 28 °C, 25 mM Hepes, 150 mM NaCl, 1 µM NADPH, 100 nM desaturase, 0.5 µM human Cytb5, 1 µM human CytP450R, 0.002% Fos-16
# [3] = substrate: CCCCCC/C=C\CCCCCCCC(=O)SCCNC(=O)CCNC(=O)[C@H](O)C(C)(C)COP(=O)(O)OP(=O)(O)OC[C@H]1O[C@@H](n2cnc3c(N)ncnc32)[C@H](O)[C@@H]1OP(=O)(O)O; test: purified protein; assay type: biochemical, Mortierella alpina; conditions: pH 7.5, 28 °C, 25 mM Hepes, 150 mM NaCl, 1 µM NADPH, 100 nM desaturase, 0.5 µM human Cytb5, 1 µM human CytP450R, 0.002% Fos-16
# [4] = substrate: CCCCC/C=C\C/C=C\CCCCCCCC(=O)SCCNC(=O)CCNC(=O)[C@H](O)C(C)(C)COP(=O)(O)OP(=O)(O)OC[C@H]1O[C@@H](n2cnc3c(N)ncnc32)[C@H](O)[C@@H]1OP(=O)(O)O; test: purified protein; assay type: biochemical, Mortierella alpina; conditions: pH 7.5, 28 °C, 25 mM Hepes, 150 mM NaCl, 1 µM NADPH, 100 nM desaturase, 0.5 µM human Cytb5, 1 µM human CytP450R, 0.002% Fos-16
# [5] = substrate: CCCCC/C=C\C/C=C\C/C=C\CCCCC(=O)SCCNC(=O)CCNC(=O)[C@H](O)C(C)(C)COP(=O)(O)OP(=O)(O)OC[C@H]1O[C@@H](n2cnc3c(N)ncnc32)[C@H](O)[C@@H]1OP(=O)(O)O; test: purified protein; assay type: biochemical, Mortierella alpina; conditions: pH 7.5, 28 °C, 25 mM Hepes, 150 mM NaCl, 1 µM NADPH, 100 nM desaturase, 0.5 µM human Cytb5, 1 µM human CytP450R, 0.002% Fos-16
# [6] = substrate: CCCCC/C=C\C/C=C\C/C=C\C/C=C\CCCC(=O)SCCNC(=O)CCNC(=O)[C@H](O)C(C)(C)COP(=O)(O)OP(=O)(O)OC[C@H]1O[C@@H](n2cnc3c(N)ncnc32)[C@H](O)[C@@H]1OP(=O)(O)O; test: purified protein; assay type: biochemical, Mortierella alpina; conditions: pH 7.5, 28 °C, 25 mM Hepes, 150 mM NaCl, 1 µM NADPH, 100 nM desaturase, 0.5 µM human Cytb5, 1 µM human CytP450R, 0.002% Fos-16
molecule,measurement,setting,value
NC(=O)C1=CN([C@@H]2O[C@H](COP(=O)(O)OP(=O)(O)OC[C@H]3O[C@@H](n4cnc5c(N)ncnc54)[C@H](OP(=O)(O)O)[C@@H]3O)[C@@H](O)[C@H]2O)C=CC1 [NADPH],"absorption shift of Cytb5 on reduction (412 to 422, 521, 554 nm)",[1],"when NADPH was added, Cytb5 was instantly reduced"
"M. alpina ω6 desaturase (Mortierella alpina) (protein, membrane desaturase expressed in Pichia pastoris (pPink-HC) with 3C site, ZZ-tag and RGS-His10-tag; tags cut off by rhinovirus 3C protease; Fos-Choline-16 solubilized, IgG Sepharose and size exclusion purified) MAPPNTIDAGLTQRHISTSAAPTSAKPAFERNYQLPEFTIKEIRECIPAHCFERSGLRGLCHVAIDLTWASLLFLAATQIDKFENPLIRYLAWPAYWIMQGIVCTGIWVLAHECGHQSFSTSKTLNNTVGWILHSMLLVPYHSWRISHSKHHKATGHMTKDQVFVPKTRSQVGLPPKENAAAAVQEEDMSVHLDEEAPIVTLFWMVIQFLFGWPAYLIMNASGQDYGRWTSHFHTYSPIFEPRNFFDIIISDLGVLAALGALIYASMQLSLLTVTKYYIVPYLFVNFWLVLITFLQHTDPKLPHYREGAWNFQRGALCTVDRSFGKFLDHMFHGIVHTHVAHHLFSQMPFYHAEEATYHLKKLLGEYYVYDPSPIVVAVWRSFRECRFVEDHGDVVFFKK",Km,[2],5.4 ± 0.8 µM
same,kcat,[2],0.00833 ± 0.000333 s⁻¹
same,kcat/Km,[2],1500 M⁻¹ s⁻¹
same,Km,[3],3.9 ± 0.9 µM
same,kcat,[3],0.00333 ± 0.000167 s⁻¹
same,kcat/Km,[3],667 M⁻¹ s⁻¹
"M. alpina ω3 desaturase (Mortierella alpina) (protein, membrane desaturase expressed in Pichia pastoris (pPink-HC) with 3C site, ZZ-tag and RGS-His10-tag; tags cut off by rhinovirus 3C protease; Fos-Choline-16 solubilized, IgG Sepharose and size exclusion purified) MAPPHVVDEQVRRRIVVEDEIKSKKQFERNYVPMDFTIKEIRDAIPAHLFIRDTTKSILHVVKDLVTIAIVFYCATFIETLPSLALRVPAWITYWIIQGTVMVGPWILAHECGHGAFSDSKTINTIFGWVLHSALLVPYQAWAMSHSKHHKGTGSMTKDVVFIPATRSYKGLPALEKPAVEEEVSEQEHHHHEESIFAETPIYTLGALLFVLTFGWPLYLIVNFSGHEAPHWVNHFQTVAPLYEPHQRKNIFYSNCGIVAMGSILTYLSMVFSPLTVFMYYGIPYLGVNAWIVCITYLQHTDPKVPHFRDNEWNFQRGAACTIDRSFGTIVNHLHHHIGDSHQCHHMFSQMPFYNAVEATKYLKAKLGKYYIFDDTPIAKALYRNWRECKFVEDEGDVVFYKH",Km,[4],16.0 ± 2.2 µM
same,kcat,[4],0.11 ± 0.01 s⁻¹
same,kcat/Km,[4],6830 M⁻¹ s⁻¹
same,Km,[5],87.8 ± 9.9 µM
same,kcat,[5],0.168 ± 0.00667 s⁻¹
same,kcat/Km,[5],2000 M⁻¹ s⁻¹
same,Km,[6],157.0 ± 23.8 µM
same,kcat,[6],0.0233 ± 0.00167 s⁻¹
same,kcat/Km,[6],167 M⁻¹ s⁻¹

# From PMC9164069, “NADPH–Cytochrome P450 Reductase Mediates the Fatty Acid Desaturation of ω3 and ω6 Desaturases from Mortierella alpina” (Current Issues in Molecular Biology, 2022)
